Laboratory results from patent US20020123042.

B1: full-length HA-epitope tagged huBUB1 (plasmid p396-1) (protein)
chain: GGGGGGMDTPENVLQMLEAHMQSYKGNDPLGEWERYIQWVEENFPENKEYLITLLEHLMKEFLDKKKYHNDPRFISYCLKFAEYNSDLHQFFEFLYNHGIGTLSSPLYIAWAGHLEAQGELQHASAVLQRGIQNQAEPREFLQQQYRLFQTRLTETHLPAQARTSEPLHNVQVLNQMITSKSNPGNNMACISKNQGSELSGVISSACDKESNMERRVITISKSEYSVHSSLASKVDVEQVVMYCKEKLIRGESEFSFEELRAQKYNQRRKHEQWVNEDRHYMKRKEANAFEEQLLKQKMDELHKKLHQVVETSHEDLPASQERSEVNPARMGPSVGSQQELRAPCLPVTYQQTPVNMEKNPREAPPVVPPLANAISAALVSPATSQSIAPPVPLKAQTVTDSMFAVASKDAGCVNKSTHEFKPQSGAEIKEGCETHKVANTSSFHTTPNTSLGMVQATPSKVQPSPTVHTKEALGFIMNMFQAPTLPDISDDKDEWQSLDQNEDAFEAQFQKNVRSSGAWGVNKIISSLSSAFHVFEDGNKENYGLPQPKNKPTGARTFGERSVSRLPSKPKEEVPHAEEFLDDSTVWGIRCNKTLAPSPKSPGDFTSAAQLASTPFHKLPVESVHILEDKENVVAKQCTQATLDSCEENMVVPSRDGKFSPIQEKSPKQALSSHMYSASLLRLSQPAAGGVLTCEAELGVEACRLTDTDAAIAEDPPDAIAGLQAEWMQMSSLGTVDAPNFIVGNPWDDKLIFKLLSGLSKPVSSYPNTFEWQCKLPAIKPKTEFQLGSKLVYVHHLLGEGAFAQVYEATQGDLNDAKNKQKFVLKVQKPANPWEFYIGTQLMERLKPSMQHMFMKFYSAHLFQNGSVLVGELYSYGTLLNAINLYKNTPEKVMPQGLVISFAMRMLYMIEQVHDCEIIHGDIKPDNFILGNGFLEQDDEDDLSAGLALIDLGQSIDMKLFPKGTIFTAKCETSGFQCVEMLSNKPWNYQIDYFGVAATVYCMLFGTYMKVKNEGGECKPEGLFRRLPHLDMWNEFFHVMLNIPDCHHLPSLDLLRQKLKKVFQQHYTNKIRALRNRLIVLLLECKRSRK
B2: wild-type huBUB1 (full-length, plasmid p385-1) (protein)
chain: MDTPENVLQMLEAHMQSYKGNDPLGEWERYIQWVEENFPENKEYLITLLEHLMKEFLDKKKYHNDPRFISYCLKFAEYNSDLHQFFEFLYNHGIGTLSSPLYIAWAGHLEAQGELQHASAVLQRGIQNQAEPREFLQQQYRLFQTRLTETHLPAQARTSEPLHNVQVLNQMITSKSNPGNNMACISKNQGSELSGVISSACDKESNMERRVITISKSEYSVHSSLASKVDVEQVVMYCKEKLIRGESEFSFEELRAQKYNQRRKHEQWVNEDRHYMKRKEANAFEEQLLKQKMDELHKKLHQVVETSHEDLPASQERSEVNPARMGPSVGSQQELRAPCLPVTYQQTPVNMEKNPREAPPVVPPLANAISAALVSPATSQSIAPPVPLKAQTVTDSMFAVASKDAGCVNKSTHEFKPQSGAEIKEGCETHKVANTSSFHTTPNTSLGMVQATPSKVQPSPTVHTKEALGFIMNMFQAPTLPDISDDKDEWQSLDQNEDAFEAQFQKNVRSSGAWGVNKIISSLSSAFHVFEDGNKENYGLPQPKNKPTGARTFGERSVSRLPSKPKEEVPHAEEFLDDSTVWGIRCNKTLAPSPKSPGDFTSAAQLASTPFHKLPVESVHILEDKENVVAKQCTQATLDSCEENMVVPSRDGKFSPIQEKSPKQALSSHMYSASLLRLSQPAAGGVLTCEAELGVEACRLTDTDAAIAEDPPDAIAGLQAEWMQMSSLGTVDAPNFIVGNPWDDKLIFKLLSGLSKPVSSYPNTFEWQCKLPAIKPKTEFQLGSKLVYVHHLLGEGAFAQVYEATQGDLNDAKNKQKFVLKVQKPANPWEFYIGTQLMERLKPSMQHMFMKFYSAHLFQNGSVLVGELYSYGTLLNAINLYKNTPEKVMPQGLVISFAMRMLYMIEQVHDCEIIHGDIKPDNFILGNGFLEQDDEDDLSAGLALIDLGQSIDMKLFPKGTIFTAKCETSGFQCVEMLSNKPWNYQIDYFGVAATVYCMLFGTYMKVKNEGGECKPEGLFRRLPHLDMWNEFFHVMLNIPDCHHLPSLDLLRQKLKKVFQQHYTNKIRALRNRLIVLLLECKRSRK

How the values were obtained:
[1] = target: wild type huBUB3 (plasmid p291-2)
wild type huBUB3 (plasmid p291-2), sequence (chain, as listed by the source): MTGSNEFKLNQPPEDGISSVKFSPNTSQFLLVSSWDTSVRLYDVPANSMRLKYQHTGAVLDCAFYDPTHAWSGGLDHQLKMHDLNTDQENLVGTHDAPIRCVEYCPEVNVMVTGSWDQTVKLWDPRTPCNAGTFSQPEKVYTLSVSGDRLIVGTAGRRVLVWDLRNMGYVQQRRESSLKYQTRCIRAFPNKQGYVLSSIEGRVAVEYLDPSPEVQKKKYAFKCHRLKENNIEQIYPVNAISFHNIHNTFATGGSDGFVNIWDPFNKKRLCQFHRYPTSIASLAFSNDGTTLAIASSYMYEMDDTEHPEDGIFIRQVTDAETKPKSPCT

PHAS-I (Strategene), sequence (Q60876 2-117): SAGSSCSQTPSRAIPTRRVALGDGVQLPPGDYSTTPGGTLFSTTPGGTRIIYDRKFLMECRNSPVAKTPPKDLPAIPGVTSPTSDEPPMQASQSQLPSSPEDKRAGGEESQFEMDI

Protein | autophosphorylation of HA-huBUB1 [1] | phosphorylation of an exogenous substrate (33P-ATP kinase reaction of immunopurified FLAG-BUB3/BUB1, SDS-PAGE, autoradiography) (PHAS-I (Strategene))
B1 | Co-translation of huBUB3 may stimulate this autophosphorylation activity. | –
B2 | – | only PHAS-I demonstrated clear huBUB1-dependent activity as a kinase substrate
